Experimental findings from US20140274782A1, “AFFINITY REAGENTS AND METHODS FOR DETECTION, PURIFICATION, AND PROTEOMIC ANALYSIS OF METHYLATED PROTEINS” (The Board of Trustees of the Leland Stanford Junior …, priority 2013, published 2014) are described below.

One experiment relates to 3×MBT domain of L3MBTL1. In words: Triple SILAC pull-down, 3xMBT/3xMBTD355N ratio (cytoplasmic, nuclear and chromatin fractions of 293T cells).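 On all read-outs here: proteins quantified with MaxQuant, requiring at least two unique peptides and quantification in both label directions, normalized to the mean of proteins from a digested loading control.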 In kind it is binding, human. Particulars: SILAC ratio, pull-down 3xMBT vs 3xMBTD355N; for 3xMBT/D355N UNC Heavy: experiment with UNC0638 in heavy SILAC media; for 3xMBT/D355N UNC Light: experiment with UNC0638 in light SILAC media.

The target in a further experiment is T1, G9a and GLP (Homo sapiens, UniProt Q96KQ7+Q9H9B1).
T1 sequence (Q96KQ7 2-1210 limits assumed): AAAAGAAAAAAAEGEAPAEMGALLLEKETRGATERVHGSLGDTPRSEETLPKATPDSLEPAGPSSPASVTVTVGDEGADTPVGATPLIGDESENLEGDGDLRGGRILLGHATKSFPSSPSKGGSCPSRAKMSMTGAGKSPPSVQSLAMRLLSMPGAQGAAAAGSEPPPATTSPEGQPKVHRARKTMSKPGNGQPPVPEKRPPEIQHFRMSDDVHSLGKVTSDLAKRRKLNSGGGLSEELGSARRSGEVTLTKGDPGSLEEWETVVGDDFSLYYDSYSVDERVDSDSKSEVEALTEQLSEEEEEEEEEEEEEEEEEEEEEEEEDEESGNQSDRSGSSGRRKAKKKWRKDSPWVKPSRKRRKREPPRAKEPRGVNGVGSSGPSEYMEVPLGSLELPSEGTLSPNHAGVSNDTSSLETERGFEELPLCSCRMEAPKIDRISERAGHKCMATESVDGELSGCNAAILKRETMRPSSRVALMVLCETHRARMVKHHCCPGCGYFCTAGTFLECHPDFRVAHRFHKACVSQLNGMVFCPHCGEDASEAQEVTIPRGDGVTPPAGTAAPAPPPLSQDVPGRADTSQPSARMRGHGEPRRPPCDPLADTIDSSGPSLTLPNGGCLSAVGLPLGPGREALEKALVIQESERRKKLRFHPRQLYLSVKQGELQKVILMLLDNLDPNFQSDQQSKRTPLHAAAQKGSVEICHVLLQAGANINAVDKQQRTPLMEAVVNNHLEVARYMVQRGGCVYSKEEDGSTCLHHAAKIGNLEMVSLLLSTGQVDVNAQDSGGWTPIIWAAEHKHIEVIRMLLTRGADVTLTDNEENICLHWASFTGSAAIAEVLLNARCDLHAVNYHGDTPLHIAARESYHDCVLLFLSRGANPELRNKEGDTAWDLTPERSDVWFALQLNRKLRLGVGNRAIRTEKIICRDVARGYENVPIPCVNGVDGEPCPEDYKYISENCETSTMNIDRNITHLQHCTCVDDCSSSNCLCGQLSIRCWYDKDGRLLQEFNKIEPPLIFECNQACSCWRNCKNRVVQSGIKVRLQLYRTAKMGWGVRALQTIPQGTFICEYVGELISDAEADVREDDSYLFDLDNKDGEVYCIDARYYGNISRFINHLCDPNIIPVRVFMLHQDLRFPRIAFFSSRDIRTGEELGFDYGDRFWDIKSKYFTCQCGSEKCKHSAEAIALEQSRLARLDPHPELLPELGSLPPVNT
T1 sequence (Q9H9B1 2-1298 limits assumed): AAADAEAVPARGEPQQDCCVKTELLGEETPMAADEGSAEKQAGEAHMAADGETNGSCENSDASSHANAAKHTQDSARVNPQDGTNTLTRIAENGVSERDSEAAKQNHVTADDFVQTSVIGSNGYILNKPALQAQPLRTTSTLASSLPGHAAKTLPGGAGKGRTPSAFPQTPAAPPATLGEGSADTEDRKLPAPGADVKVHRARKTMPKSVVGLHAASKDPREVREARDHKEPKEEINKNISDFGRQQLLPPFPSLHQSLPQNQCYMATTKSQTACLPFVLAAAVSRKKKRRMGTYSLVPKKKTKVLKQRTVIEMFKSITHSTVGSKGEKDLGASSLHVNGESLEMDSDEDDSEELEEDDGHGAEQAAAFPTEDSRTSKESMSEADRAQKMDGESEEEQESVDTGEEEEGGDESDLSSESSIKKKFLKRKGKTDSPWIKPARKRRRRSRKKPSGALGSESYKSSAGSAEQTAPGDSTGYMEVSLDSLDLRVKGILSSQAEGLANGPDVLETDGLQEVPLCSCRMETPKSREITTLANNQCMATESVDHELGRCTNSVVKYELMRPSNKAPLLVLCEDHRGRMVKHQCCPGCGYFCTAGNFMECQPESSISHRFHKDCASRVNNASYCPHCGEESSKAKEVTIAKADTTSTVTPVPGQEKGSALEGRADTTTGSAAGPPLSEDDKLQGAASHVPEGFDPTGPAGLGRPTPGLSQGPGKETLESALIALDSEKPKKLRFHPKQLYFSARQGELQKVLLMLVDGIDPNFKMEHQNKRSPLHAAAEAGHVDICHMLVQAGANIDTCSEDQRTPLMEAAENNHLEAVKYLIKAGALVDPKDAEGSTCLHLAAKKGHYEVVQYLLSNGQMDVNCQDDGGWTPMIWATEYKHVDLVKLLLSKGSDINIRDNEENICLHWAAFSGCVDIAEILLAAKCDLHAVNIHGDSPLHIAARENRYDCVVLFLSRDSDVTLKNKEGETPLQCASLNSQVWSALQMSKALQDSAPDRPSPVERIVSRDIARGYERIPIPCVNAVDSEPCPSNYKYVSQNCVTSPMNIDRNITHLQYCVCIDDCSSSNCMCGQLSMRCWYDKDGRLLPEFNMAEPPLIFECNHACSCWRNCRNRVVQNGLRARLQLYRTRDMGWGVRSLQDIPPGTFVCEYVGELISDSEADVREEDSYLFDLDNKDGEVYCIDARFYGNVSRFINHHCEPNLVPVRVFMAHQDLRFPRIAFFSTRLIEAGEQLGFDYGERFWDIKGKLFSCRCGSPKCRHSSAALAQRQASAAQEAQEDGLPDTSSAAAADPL
In words: Triple SILAC pull-down after UNC0638 treatment of 293T cells, DMSO/UNC0638 ratio of protein captured by 3×MBT.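 On all read-outs here: mass spectrometry (Q-Exactive) SILAC quantitation, DMSO/UNC0638 ratio computed after subtracting 3×MBTD355N mutant pull-down background, only proteins with at least twofold 3×MBT over mutant signal considered.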 In kind it is cell-based. Further details: endogenous in cells; host or cells: HEK 293T. Particulars: for Relative to UNC0638 UNC Heavy / Relative to UNC0638 UNC Light: SILAC ratio DMSO/UNC0638 of protein pulled down with 3xMBT; for Relative to UNC0638 UNC Heavy: UNC0638 in heavy SILAC media; for Relative to UNC0638 UNC Light: UNC0638 in light SILAC media; for Relative to UNC0638 Average: average of UNC Light and UNC Heavy experiments.

B1: GNB1L (protein, UniProt Q9BYB4 1-327, looked up)
Guanine nucleotide-binding …: MTAPCPPPPPDPQFVLRGTQSPVHALHFCEGAQAQGRPLLFSGSQSGLVHIWSLQTRRAVTTLDGHGGQCVTWLQTLPQGRQLLSQGRDLKLCLWDLAEGRSAVVDSVCLESVGFCRSSILAGGQPRWTLAVPGRGSDEVQILEMPSKTSVCALKPKADAKLGMPMCLRLWQADCSSRPLLLAGYEDGSVVLWDVSEQKVCSRIACHEEPVMDLDFDSQKARGISGSAGKALAVWSLDWQQALQVRGTHELTNPGIAEVTIRPDRKILATAGWDHRIRVFHWRTMQPLAVLAFHSAAVQCVAFTADGLLAAGSKDQRISLWSLYPRA
Regarding B1, in the experiment on 3×MBT domain of L3MBTL1, the “3xMBT/D355N UNC Heavy” value is recorded as 2.24 log base 2 and the “3xMBT/D355N UNC Light” value was 2.60 log base 2. In the experiment with G9a and GLP, the “Relative to UNC0638 UNC Heavy” value turned out to be 0.25 log base 2, the “Relative to UNC0638 UNC Light” value stood at 0.12 log base 2 and the “Relative to UNC0638 Average” value is on record as 0.19 log base 2.

B2: FUS (protein, UniProt P35637 1-526, looked up)
RNA-binding protein FUS: MASNDYTQQATQSYGAYPTQPGQGYSQQSSQPYGQQSYSGYSQSTDTSGYGQSSYSSYGQSQNTGYGTQSTPQGYGSTGGYGSSQSSQSSYGQQSSYPGYGQQPAPSSTSGSYGSSSQSSSYGQPQSGSYSQQPSYGGQQQSYGQQQSYNPPQGYGQQNQYNSSSGGGGGGGGGGNYGQDQSSMSSGGGSGGGYGNQDQSGGGGSGGYGQQDRGGRGRGGSGGGGGGGGGGYNRSSGGYEPRGRGGGRGGRGGMGGSDRGGFNKFGGPRDQGSRHDSEQDNSDNNTIFVQGLGENVTIESVADYFKQIGIIKTNKKTGQPMINLYTDRETGKLKGEATVSFDDPPSAKAAIDWFDGKEFSGNPIKVSFATRRADFNRGGGNGRGGRGRGGPMGRGGYGGGGSGGGGRGGFPSGGGGGGGQQRAGDWKCPNPTCENMNFSWRNECNQCKAPKPDGPGGGPGGSHMGGNYGDDRRGGRGGYDRGGYRGRGGDRGGFRGGRGGGDRGGFGPGKMDSRGEHRQDRRERPY
B2: in the experiment with 3×MBT domain of L3MBTL1, the “3xMBT/D355N UNC Heavy” value stood at 2.17 log base 2 and the “3xMBT/D355N UNC Light” value is reported as 2.10 log base 2. In addition, in the experiment with G9a and GLP, the “Relative to UNC0638 UNC Heavy” value is 0.05 log base 2, the “Relative to UNC0638 UNC Light” value is 0.34 log base 2 and the “Relative to UNC0638 Average” value was found to be 0.19 log base 2.

B3: CPSF2 (protein, UniProt Q9P2I0 1-782, looked up)
Cleavage and polyadenylation …: MTSIIKLTTLSGVQEESALCYLLQVDEFRFLLDCGWDEHFSMDIIDSLRKHVHQIDAVLLSHPDPLHLGALPYAVGKLGLNCAIYATIPVYKMGQMFMYDLYQSRHNTEDFTLFTLDDVDAAFDKIQQLKFSQIVNLKGKGHGLSITPLPAGHMIGGTIWKIVKDGEEEIVYAVDFNHKREIHLNGCSLEMLSRPSLLITDSFNATYVQPRRKQRDEQLLTNVLETLRGDGNVLIAVDTAGRVLELAQLLDQIWRTKDAGLGVYSLALLNNVSYNVVEFSKSQVEWMSDKLMRCFEDKRNNPFQFRHLSLCHGLSDLARVPSPKVVLASQPDLECGFSRDLFIQWCQDPKNSIILTYRTTPGTLARFLIDNPSEKITEIELRKRVKLEGKELEEYLEKEKLKKEAAKKLEQSKEADIDSSDESDIEEDIDQPSAHKTKHDLMMKGEGSRKGSFFKQAKKSYPMFPAPEERIKWDEYGEIIKPEDFLVPELQATEEEKSKLESGLTNGDEPMDQDLSDVPTKCISTTESIEIKARVTYIDYEGRSDGDSIKKIINQMKPRQLIIVHGPPEASQDLAECCRAFGGKDIKVYMPKLHETVDATSETHIYQVRLKDSLVSSLQFCKAKDAELAWIDGVLDMRVSKVDTGVILEEGELKDDGEDSEMQVEAPSDSSVIAQQKAMKSLFGDDEKETGEESEIIPTLEPLPPHEVPGHQSVFMNEPRLSDFKQVLLREGIQAEFVGGVLVCNNQVAVRRTETGRIGLEGCLCQDFYRIRDLLYEQYAIV
Consider B3, for which, in the experiment with 3×MBT domain of L3MBTL1, the “3xMBT/D355N UNC Heavy” value stood at 1.85 log base 2 and the “3xMBT/D355N UNC Light” value amounted to 4.20 log base 2. Also, in the experiment with G9a and GLP, the “Relative to UNC0638 UNC Heavy” value is reported as 0.15 log base 2, the “Relative to UNC0638 UNC Light” value stood at 3.16 log base 2 and the “Relative to UNC0638 Average” value is given as 1.65 log base 2. The “Candidate G9a/GLP target” value with G9a and GLP (reduced association with 3xMBT after UNC0638 treatment) is recorded as “✓”.

B4: TOP1 (protein, UniProt P11387 2-765, looked up)
DNA topoisomerase 1: SGDHLHNDSQIEADFRLNDSHKHKDKHKDREHRHKEHKKEKDREKSKHSNSEHKDSEKKHKEKEKTKHKDGSSEKHKDKHKDRDKEKRKEEKVRASGDAKIKKEKENGFSSPPQIKDEPEDDGYFVPPKEDIKPLKRPRDEDDADYKPKKIKTEDTKKEKKRKLEEEEDGKLKKPKNKDKDKKVPEPDNKKKKPKKEEEQKWKWWEEERYPEGIKWKFLEHKGPVFAPPYEPLPENVKFYYDGKVMKLSPKAEEVATFFAKMLDHEYTTKEIFRKNFFKDWRKEMTNEEKNIITNLSKCDFTQMSQYFKAQTEARKQMSKEEKLKIKEENEKLLKEYGFCIMDNHKERIANFKIEPPGLFRGRGNHPKMGMLKRRIMPEDIIINCSKDAKVPSPPPGHKWKEVRHDNKVTWLVSWTENIQGSIKYIMLNPSSRIKGEKDWQKYETARRLKKCVDKIRNQYREDWKSKEMKVRQRAVALYFIDKLALRAGNEKEEGETADTVGCCSLRVEHINLHPELDGQEYVVEFDFLGKDSIRYYNKVPVEKRVFKNLQLFMENKQPEDDLFDRLNTGILNKHLQDLMEGLTAKVFRTYNASITLQQQLKELTAPDENIPAKILSYNRANRAVAILCNHQRAPPKTFEKSMMNLQTKIDAKKEQLADARRDLKSAKADAKVMKDAKTKKVVESKKKAVQRLEEQLMKLEVQATDREENKQIALGTSKLNYLDPRITVAWCKKWGVPIEKIYNKTQREKFAWAIDMADEDYEF
On to B4, for which, in the experiment with 3×MBT domain of L3MBTL1, the “3xMBT/D355N UNC Heavy” value worked out at 3.47 log base 2 and the “3xMBT/D355N UNC Light” value was 3.87 log base 2. Besides, in the experiment with G9a and GLP, the “Relative to UNC0638 UNC Heavy” value was 0.16 log base 2, the “Relative to UNC0638 UNC Light” value is given as 0.22 log base 2 and the “Relative to UNC0638 Average” value is reported as 0.19 log base 2.
